# Source: IntAct's records for PubMed 31515488
# B1: Spermatogenic leucine zipper protein 1 (Homo sapiens), Q9BXG8 (parent)
# chain: MASSAKSAEMPTISKTVNPTPDPHQEYLDPRITIALFEIGSHSPSSWGSLPFLKNSSHQVTEQQTAQKFNNLLKEIKDILKNMAGFEEKITEAKELFEETNITEDVSAHKENIRGLDKINEMLSTNLPVSLAPEKEDNEKKQEMILETNITEDVSAHKENIRGLDKINEMLSTNLPVSLAPEKEDNEKKQQMIMENQNSENTAQVFARDLVNRLEEKKVLNETQQSQEKAKNRLNVQEETMKIRNNMEQLLQEAEHWSKQHTELSKLIKSYQKSQKDISETLGNNGVGFQTQPNNEVSAKHELEEQVKKLSHDTYSLQLMAALLENECQILQQRVEILKELHHQKQGTLQEKPIQINYKQDKKNQKPSEAKKVEMYKQNKQAMKGTFWKKDRSCRSLDVCLNKKACNTQFNIHVARKALRGKMRSASSLR
# partner: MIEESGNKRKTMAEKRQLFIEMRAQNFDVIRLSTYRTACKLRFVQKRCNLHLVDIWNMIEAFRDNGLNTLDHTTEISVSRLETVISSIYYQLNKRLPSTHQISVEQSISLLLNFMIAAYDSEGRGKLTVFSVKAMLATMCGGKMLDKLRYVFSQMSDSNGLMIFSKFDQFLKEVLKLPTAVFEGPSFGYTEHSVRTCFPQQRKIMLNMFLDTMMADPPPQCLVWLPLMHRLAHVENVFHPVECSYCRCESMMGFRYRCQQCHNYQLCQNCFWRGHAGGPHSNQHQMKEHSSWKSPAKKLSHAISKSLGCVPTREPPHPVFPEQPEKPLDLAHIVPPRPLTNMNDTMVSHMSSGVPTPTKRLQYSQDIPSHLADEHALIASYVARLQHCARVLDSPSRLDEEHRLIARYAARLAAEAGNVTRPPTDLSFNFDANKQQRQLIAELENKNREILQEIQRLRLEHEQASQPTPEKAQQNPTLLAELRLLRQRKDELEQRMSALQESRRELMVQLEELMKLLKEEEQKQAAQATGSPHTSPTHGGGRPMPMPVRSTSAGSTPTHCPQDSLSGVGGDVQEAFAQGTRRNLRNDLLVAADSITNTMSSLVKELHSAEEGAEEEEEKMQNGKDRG
# B2: Keratin, type II cytoskeletal 2 epidermal (Homo sapiens), P35908 (parent)
# chain: MSCQISCKSRGRGGGGGGFRGFSSGSAVVSGGSRRSTSSFSCLSRHGGGGGGFGGGGFGSRSLVGLGGTKSISISVAGGGGGFGAAGGFGGRGGGFGGGSSFGGGSGFSGGGFGGGGFGGGRFGGFGGPGGVGGLGGPGGFGPGGYPGGIHEVSVNQSLLQPLNVKVDPEIQNVKAQEREQIKTLNNKFASFIDKVRFLEQQNQVLQTKWELLQQMNVGTRPINLEPIFQGYIDSLKRYLDGLTAERTSQNSELNNMQDLVEDYKKKYEDEINKRTAAENDFVTLKKDVDNAYMIKVELQSKVDLLNQEIEFLKVLYDAEISQIHQSVTDTNVILSMDNSRNLDLDSIIAEVKAQYEEIAQRSKEEAEALYHSKYEELQVTVGRHGDSLKEIKIEISELNRVIQRLQGEIAHVKKQCKNVQDAIADAEQRGEHALKDARNKLNDLEEALQQAKEDLARLLRDYQELMNVKLALDVEIATYRKLLEGEECRMSGDLSSNVTVSVTSSTISSNVASKAAFGGSGGRGSSSGGGYSSGSSSYGSGGRQSGSRGGSGGGGSISGGGYGSGGGSGGRYGSGGGSKGGSISGGGYGSGGGKHSSGGGSRGGSSSGGGYGSGGGGSSSVKGSSGEAFGSSVTFSFR
# partner: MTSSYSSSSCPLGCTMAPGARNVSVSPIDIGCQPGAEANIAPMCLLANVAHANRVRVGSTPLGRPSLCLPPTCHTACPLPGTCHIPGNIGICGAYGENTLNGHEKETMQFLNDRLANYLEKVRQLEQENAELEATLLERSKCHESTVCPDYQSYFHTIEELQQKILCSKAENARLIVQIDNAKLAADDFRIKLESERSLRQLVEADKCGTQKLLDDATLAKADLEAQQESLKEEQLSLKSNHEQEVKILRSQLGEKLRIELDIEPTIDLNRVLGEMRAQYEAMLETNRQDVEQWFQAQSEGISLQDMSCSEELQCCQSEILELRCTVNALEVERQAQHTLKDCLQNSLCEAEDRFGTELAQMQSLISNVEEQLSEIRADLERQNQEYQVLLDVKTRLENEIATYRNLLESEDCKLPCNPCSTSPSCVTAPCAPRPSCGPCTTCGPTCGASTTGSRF
# B3: Aminoacylase-1 (Homo sapiens), Q03154 (parent)
# chain: MTSKGPEEEHPSVTLFRQYLRIRTVQPKPDYGAAVAFFEETARQLGLGCQKVEVAPGYVVTVLTWPGTNPTLSSILLNSHTDVVPVFKEHWSHDPFEAFKDSEGYIYARGAQDMKCVSIQYLEAVRRLKVEGHRFPRTIHMTFVPDEEVGGHQGMELFVQRPEFHALRAGFALDEGIANPTDAFTVFYSERSPWWVRVTSTGRPGHASRFMEDTAAEKLHKVVNSILAFREKEWQRLQSNPHLKEGSVTSVNLTKLEGGVAYNVIPATMSASFDFRVAPDVDFKAFEEQLQSWCQAAGEGVTLEFAQKWMHPQVTPTDDSNPWWAAFSRVCKDMNLTLEPEIMPAATDNRYIRAVGVPALGFSPMNRTPVLLHDHDERLHEAVFLRGVDIYTRLLPALASVPALPSDS
# partner: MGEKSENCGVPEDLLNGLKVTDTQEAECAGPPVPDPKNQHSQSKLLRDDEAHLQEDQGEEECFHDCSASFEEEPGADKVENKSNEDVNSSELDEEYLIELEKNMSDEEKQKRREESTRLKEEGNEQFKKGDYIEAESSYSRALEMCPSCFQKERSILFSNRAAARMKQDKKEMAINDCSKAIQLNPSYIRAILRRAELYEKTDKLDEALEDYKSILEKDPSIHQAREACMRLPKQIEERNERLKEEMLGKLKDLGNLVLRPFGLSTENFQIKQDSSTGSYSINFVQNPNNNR
# B4: Tyrosine-protein phosphatase non-receptor type 9 (Homo sapiens), P43378 (parent)
# chain: MEPATAPRPDMAPELTPEEEQATKQFLEEINKWTVQYNVSPLSWNVAVKFLMARKFDVLRAIELFHSYRETRRKEGIVKLKPHEEPLRSEILSGKFTILNVRDPTGASIALFTARLHHPHKSVQHVVLQALFYLLDRAVDSFETQRNGLVFIYDMCGSNYANFELDLGKKVLNLLKGAFPARLKKVLIVGAPIWFRVPYSIISLLLKDKVRERIQILKTSEVTQHLPRECLPENLGGYVKIDLATWNFQFLPQVNGHPDPFDEIILFSLPPALDWDSVHVPGPHAMTIQELVDYVNARQKQGIYEEYEDIRRENPVGTFHCSMSPGNLEKNRYGDVPCLDQTRVKLTKRSGHTQTDYINASFMDGYKQKNAYIGTQGPLENTYRDFWLMVWEQKVLVIVMTTRFEEGGRRKCGQYWPLEKDSRIRFGFLTVTNLGVENMNHYKKTTLEIHNTEERQKRQVTHFQFLSWPDYGVPSSAASLIDFLRVVRNQQSLAVSNMGARSKGQCPEPPIVVHCSAGIGRTGTFCSLDICLAQLEELGTLNVFQTVSRMRTQRAFSIQTPEQYYFCYKAILEFAEKEGMVSSGQNLLAVESQ
# partner: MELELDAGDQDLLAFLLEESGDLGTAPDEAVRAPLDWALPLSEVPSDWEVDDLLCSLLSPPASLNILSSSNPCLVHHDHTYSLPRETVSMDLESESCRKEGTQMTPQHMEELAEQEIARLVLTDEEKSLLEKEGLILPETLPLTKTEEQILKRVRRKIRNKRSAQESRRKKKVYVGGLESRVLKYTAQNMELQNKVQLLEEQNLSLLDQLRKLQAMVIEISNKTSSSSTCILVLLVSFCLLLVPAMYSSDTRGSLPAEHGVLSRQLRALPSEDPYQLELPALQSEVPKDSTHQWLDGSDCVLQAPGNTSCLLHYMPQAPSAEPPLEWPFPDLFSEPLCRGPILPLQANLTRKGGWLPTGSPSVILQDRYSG
# B5: Coiled-coil domain-containing protein 106 (Homo sapiens), Q9BWC9 (parent)
# chain: MNDRSSRRRTMKDDETFEISIPFDEAPHLDPQIFYSLSPSRRNFEEPPEAASSALALMNSVKTQLHMALERNSWLQKRIEDLEEERDFLRCQLDKFISSARMEAEDHCRMKPGPRRMEGDSRGGAGGEASDPESAASSLSGASEEGSASERRRQKQKGGASRRRFGKPKARERQRVKDADGVLCRYKKILGTFQKLKSMSRAFEHHRVDRNTVALTTPIAELLIVAPEKLAEVGEFDPSKERLLEYSRRCFLALDDETLKKVQALKKSKLLLPITYRFKR
# Variants of: B1
# Details: with dtnb_human DTNB
row,effect of a mutation on the interaction,Variant
1,with no effect,E9K

# Variants of: B2
# Details: with krt38_human KRT38, O76015
row,effect of a mutation on the interaction,Variant
1,with no effect,A517G

# Variants of: B3
# Details: with ttc1_human TTC1, Q99614
row,effect of a mutation on the interaction,Variant
1,disrupting interaction strength,R197W

# Variants of: B4
# Details: with creb3_human CREB3, O43889
row,effect of a mutation on the interaction,Variant
1,with no effect,R72Q

# Variants of: B5
# Details: with atf4_human ATF4, P18848
# Chain of atf4_human ATF4, P18848 (P18848 whole entry): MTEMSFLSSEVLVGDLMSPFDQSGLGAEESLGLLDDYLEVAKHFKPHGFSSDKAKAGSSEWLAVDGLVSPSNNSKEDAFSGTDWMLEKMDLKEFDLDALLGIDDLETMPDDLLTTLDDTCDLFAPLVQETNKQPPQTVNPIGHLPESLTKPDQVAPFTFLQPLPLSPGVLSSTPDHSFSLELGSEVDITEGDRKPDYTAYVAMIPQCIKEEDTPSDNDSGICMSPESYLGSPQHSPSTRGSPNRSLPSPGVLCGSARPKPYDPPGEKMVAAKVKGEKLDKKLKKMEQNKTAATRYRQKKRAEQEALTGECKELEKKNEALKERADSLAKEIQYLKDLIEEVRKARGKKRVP
row,effect of a mutation on the interaction,Variant
1,with no effect,A54T

# Variants of: B5
# Details: with fam9b_human FAM9B
row,effect of a mutation on the interaction,Variant
1,with no effect,A54T

# Variants of: B5
# Details: with ptbp2_human PTBP2, Q9UKA9
# Chain of ptbp2_human PTBP2, Q9UKA9 (Q9UKA9 whole entry): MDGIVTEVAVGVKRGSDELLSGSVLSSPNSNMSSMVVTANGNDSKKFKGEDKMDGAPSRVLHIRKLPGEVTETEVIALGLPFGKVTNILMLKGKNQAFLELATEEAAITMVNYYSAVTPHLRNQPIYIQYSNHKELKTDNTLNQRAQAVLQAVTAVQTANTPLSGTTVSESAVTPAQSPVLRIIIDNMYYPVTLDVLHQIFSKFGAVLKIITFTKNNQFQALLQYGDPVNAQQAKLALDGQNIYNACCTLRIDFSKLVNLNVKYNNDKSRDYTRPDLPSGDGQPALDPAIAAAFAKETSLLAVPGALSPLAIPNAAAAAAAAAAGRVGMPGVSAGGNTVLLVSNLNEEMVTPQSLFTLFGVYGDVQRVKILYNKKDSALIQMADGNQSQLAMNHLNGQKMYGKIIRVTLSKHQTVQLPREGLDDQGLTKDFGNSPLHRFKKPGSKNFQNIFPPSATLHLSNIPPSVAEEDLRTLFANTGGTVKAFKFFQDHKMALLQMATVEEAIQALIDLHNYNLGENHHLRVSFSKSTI
row,effect of a mutation on the interaction,Variant
1,with no effect,A54T
